Key:
[1] = target: HipB antitoxin from Haemophilus influenzae (HI0666.1) (H. influenzae (KW20 strain, ATCC 51907)) (UniProt P44034); assay: cross-linking; chemical cross-linking of H. influenzae HipB with DMA and DMS cross-linkers, SDS-PAGE
[2] = target: T1, HipA^C, C-terminal component of the split HipA toxin from Haemophilus influenzae (HI0665), His-tagged (H. influenzae (KW20 strain, ATCC 51907), UniProt P44033 1-343); assay: pull-down; conditions: partners not purified
T1 construct: also called His-tagged HipA^C; not shown: His6, N-terminal, kept
T1 sequence: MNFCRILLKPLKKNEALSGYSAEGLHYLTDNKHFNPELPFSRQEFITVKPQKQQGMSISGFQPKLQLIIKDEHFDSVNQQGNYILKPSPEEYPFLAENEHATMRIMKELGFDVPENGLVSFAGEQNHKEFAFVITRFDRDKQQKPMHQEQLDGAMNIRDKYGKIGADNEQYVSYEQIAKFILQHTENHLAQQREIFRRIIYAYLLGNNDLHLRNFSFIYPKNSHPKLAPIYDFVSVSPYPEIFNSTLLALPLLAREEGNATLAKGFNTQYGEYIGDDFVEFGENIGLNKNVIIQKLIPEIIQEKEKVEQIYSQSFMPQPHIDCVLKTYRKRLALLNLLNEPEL

Q: Which stoichiometry N [1] does the source give for “HipB antitoxin from Haemophilus influenzae (HI0666.1) (from UniProt P44034 1-106) (natural protein)” here?
A: Its stoichiometry N is 2.

B1: HipA^N, N-terminal component of the split HipA toxin from Haemophilus influenzae (HI0666) (natural protein)
chain: MRDLVRSGKVFLYGEFIGLLREDHRGFHFSYNPDYQGIPLSLSFPIEQSPFHSDTLFPYFASLVPEGWLKHKYALHQRIDESDMFRFLLNNGENMLGAVQIQEEKQ
Q: Does B1 bind [2]?
A: Result: binds
